Measurements reported in PMC9385671 (Nature Communications, 2022).
Several values for one entry are separate records, joined by “and”; a condition that tells them apart may be missing. Equal entries are not always repeated.

Columns and labels:
[1] = target: T1, FtsZ-YFP-mts (Escherichia coli, UniProt P0A9A6); settings: on SLB; slope of kymographs
Experimental: (§1) Images corresponded to an average of 5–10 frames from a time-series experiment. For the kymograph analysis, time-series acquisitions were filtered using a standard mean filter (2 pixel) and were drift corrected (multistackreg plugin). A MATLAB script allowed the user to define a ring by providing two coordinates. Every ring was automatically fitted to a circle with radius r. Then, three trajectories corresponding to three concentric circles having radii r, r + 1, and r − 1 pixels were determined. At this point, the script read the time-series data and calculated a kymograph for each time point and trajectory. To automatically calculate the slope, the kymograph was smoothed with a Savitzky-Golay filter of order 2 and enhance its contrast using a contrast-limited-adaptive-histogram-equalization (CLAHE) routine (MATLAB). Next, using Fourier analysis from previous study, the characteristic frequency for the patterns on the kymograph was found. Finally, the slope corresponded to the change in phase at this frequency. Quality criteria were properly chosen to reject low-quality regions over the kymograph. To synchronize time-lapse acquisitions, the initial frame (time 0) was defined when surface mean intensity was around 200 A.U.

[2] = system: FtsZ-YFP-mts; settings: on SLB; mean ± SD
Experimental: as §1

[3] = target: T1, FtsZ-YFP-mts; settings: on SLB; n = 6
Experimental: (§2) Fluorescence recovery after photobleaching data (FRAP) on the SLB were evaluated by choosing two separately circle areas (r = 4 µm). One circle was taken as a reference. Another one was photobleached by 20 iterations of 488 nm, laser under 100% laser power. Their fluorescence recovery in the green channel was monitored. Intensity traces were collected using Fiji, corrected for photobleaching and normalized with the pre-bleaching intensity and the reference intensity. The fluorescence recovery curves were then fitted with mono-exponential equation using Originpro (v_2017 & v_2019):1 Y=Ae^−kt+B, where Y represents fluorescence intensity at time t, A and B are parameters, and k represents the rate constant. The half-life, t1/2, was determined using the following equation:2 t1/2=ln2k^−1

[4] = system: FtsZ-YFP-mts; settings: FRAP
Experimental: as §2

[5] = target: T1, FtsZ-YFP-mts; settings: total protein 0.5 µM
Experimental: The final volume of a sample was approximately 250 μl. […] Polymerization was induced by adding 4 mM GTP.

[6] = target: T1, FtsZ-YFP-mts; format: biochemical; parameters: made in house; host or cells: E. coli BL21(DE3) for the wild type; settings: 5 μM protein, 1 mM GTP
Experimental: Reactions were performed every 20 s for a total time of 120 s. After 30 min of incubation with BIOMOL® GREEN at room temperature, the absorbance of the samples at 620 nm was monitored by TECAN plate reader. The phosphate release concentrations were calculated based on a phosphate standard curve.

[7] = target: T1, FtsZ-YFP-mts; parameters: made in house; host or cells: E. coli BL21(DE3) for the wild type; settings: 0.5 μM protein, 4 mM GTP
Experimental: 1,2-dioleoyl-sn-glycero-3-phosphocholine (DOPC):1,2-dioleoyl-sn-glycero-3-phospho-(1’-rac-glycerol) (DOPG), 70:30 mol % mixture, was dissolved in chloroform in a quartz container, then dehumidified under a gas nitrogen stream. Chloroform traces were further removed through desiccation (1 h). Afterwards, the lipid film was hydrated to a final concentration of 4 mg/ml in supported lipid bilayers (SLB) buffer (50 mM Tris-HCl at pH 7.5, 150 mM KCl), and incubated at 37 °C for 30 min. The lipid film was then completely resuspended by vortexing rigorously to obtain multilamellar vesicles of different sizes. This mixture was then placed in a bath sonicator where shear forces help to reduce the size of the vesicles, giving rise to small unilamellar vesicles (SUVs). The SUV dispersion were stored at −20 °C as 20 µl aliquots.
Glass coverslips (1.5#, 24 x 24 mm) were cleaned by piranha solution overnight, followed by extensive washing with milliQ H2O. Then glass coverslips were blown dry with compressed air. The reaction chamber was prepared by attaching a plastic ring on a cleaned glass coverslip using ultraviolet glue (Thorlabs No. 68). For supported lipid bilayer formation, the SUV dispersion was diluted in SLB buffer to 0.5 mg/ml, of which 75 µl was added to the reaction chamber. Adding CaCl2 to a final concentration of 3 mM induced fusion of the vesicles and the formation of a lipid bilayer on coversilde. After 20 min of incubation at 37 °C, the sample was rinsed with 2 ml pre-warmed SLB buffer.
Polymerization was induced by adding 4 mM GTP.
The UltimateFocus feature of DeltaVision Elite maintains the focus plane constant in time. […] Fluorescence imaging was performed using a standard FITC filter set. Images were acquired with a PCO sCMOS 5.5 camera (PCO, Germany) controlled by the softWoRx Software (GE Healthcare Life Sciences, Germany). For time-lapse experiments, images were acquired every 3 s with a 0.05 s exposure time and light illumination shuttered between acquisitions.

B1: Wild type FtsZ-YFP-mts: truncated FtsZ(1-366) fused with yellow fluorescent protein (YFP) and a membrane-targeting sequence (mts) (protein)
chain: MFEPMELTNDAVIKVIGVGGGGGNAVEHMVRERIEGVEFFAVNTDAQALRKTAVGQTIQIGSGITKGLGAGANPEVGRNAADEDRDALRAALEGADMVFIAAGMGGGTGTGAAPVVAEVAKDLGILTVAVVTKPFNFEGKKRMAFAEQGITELSKHVDSLITIPNDKLLKVLGRGISLLDAFGAANDVLKGAVQGIAELITRPGLMNVDFADVRTVMSEMGYAMMGSGVASGEDRAEEAAEMAISSPLLEDIDLSGARGVLVNITAGFDLRLDEFETVGNTIRAFASDNATVVIGTSLDPDMNDELRVTVVATGIGMDKRPEITLVTNKQVQQPVMDRYQQHGMAPLTQEQKPVAKVVNDNAPQTA
modifications: left off: YFP, end not stated, kept | mts (membrane-targeting sequence), end not stated, kept
Mean rotation (treadmilling) velocity [1]: 21.63 ± 5.11 nm/s
Treadmilling velocity [2]: 21.63 ± 5.11 nm/s
FRAP half-time [3]: 4.97 ± 0.24 s
half time, ave ([4]; average of the three measurements (stdev in the row below), Fig. 2h): 4.974 s
half time ([4]; individual measurements, source data of Fig. 2h): 4.866 s and 5.251 s and 4.806 s
Ring density, Average ([5]; average of three repeats): 144248 µm−2
Ring density, single repeats ([5]; repeats 1-3, listed as 0 Cl2Y): 133565 µm−2 and 142057 µm−2 and 157123 µm−2
Ring density ([5]; stated percentage of Cl2Y modified variant): 1.44 (±0.12) × 10^5 µm^−2
GTPase activity, Average ([6]; average of two repeats): 7.3492 pi/min
GTPase activity, single repeats ([6]; repeat 1 and repeat 2): 7.7984 pi/min and 6.9 pi/min
Phosphate at Time 0.3 min ([6]; time 0.3 min, repeats 1 and 2): 6.378 µM and 10.2373 µM
Phosphate at Time 0.7 min ([6]; time 0.7 min, repeats 1 and 2): 8.111 µM
Phosphate at Time 1 min ([6]; time 1 min, repeats 1 and 2): 13.7966 µM and 9.644 µM
Phosphate at Time 2 min ([6]; time 2 min, repeats 1 and 2): 19.8222 µM and 22.4068 µM
Ring pattern formation on supported lipid bilayer ([7]; TIRFM): homogeneous treadmilling ring pattern
Average ring diameter ([7]; on SLB, mean ± SD): 0.80 ± 0.18 μm
